From article PMC8384158 come the findings set out here.

Targets include CCT2; CCT5; CCT6A; ERP29; GANAB; HSP90AB1; HSPA2; HSPA9; PDIA4; PSMB6; PSMD2; RPN2; SERPINH1; TCP1; UBA1; CCT3; UCHL1.
What all share (experiment): TAP pull-down interactome analysis (LC-MS/MS)
Conditions in all cases: MCF-7 cells; read off a plot

In the case of “TAP–Bag-1S (from UniProt Q99933-4) I103K”, the other: log2 relative change was -0.82 log2 with CCT2; -1.5 log2 with CCT5; -1.6 log2 in the test with CCT6A; -2.3 log2 in the test with ERP29; -0.47 log2 with GANAB; -1.2 log2 with HSP90AB1. Also, the other: log2 relative change is 0.7 log2 with HSPA2; -0.32 log2 in the test with HSPA9; -0.8 log2 with PDIA4; -0.9 log2 with PSMB6; -2 log2 with PSMD2; -1.9 log2 with RPN2. The figures for the other: log2 relative change in the test with SERPINH1, in the test with TCP1 and with UBA1 were -0.85 log2, -1.7 log2 and -0.2 log2, respectively.
Take “TAP–Bag-1S (from UniProt Q99933-4) R161D”: the other: log2 relative change in the test with CCT2 is -1.6 log2; in the test with CCT3, -1.4 log2; in the test with CCT5, 2 log2; with GANAB, -1.8 log2; in the test with HSP90AB1, -1.9 log2; in the test with HSPA9 it was -0.32 log2. In addition, the other: log2 relative change in the test with PDIA4 was -0.7 log2; in the test with PSMB6, -2.3 log2; with PSMD2, -2.1 log2; in the test with SERPINH1, -1.3 log2; in the test with TCP1, -0.52 log2; in the test with UBA1, -2 log2.
In the case of “TAP–Bag-1S (from UniProt Q99933-4) R162E”, the other: log2 relative change in the test with CCT2 was -1.5 log2; with CCT3 it was -1.2 log2; in the test with CCT5, -0.35 log2; with CCT6A, -2 log2; with GANAB it was -0.52 log2; in the test with HSP90AB1, -1.7 log2. Moreover, the other: log2 relative change was -1.7 log2 in the test with HSPA9; -1.8 log2 in the test with PDIA4; -2.3 log2 in the test with PSMB6; -2.1 log2 with RPN2; -1.1 log2 with SERPINH1; -1.9 log2 with TCP1. Besides, the other: log2 relative change in the test with UBA1 is -0.47 log2.
“TAP–Bag-1S (from UniProt Q99933-4) R193D”: the other: log2 relative change with CCT2 is -0.05 log2; in the test with CCT3, 1 log2; in the test with CCT5, -0.45 log2; with ERP29, 1.5 log2; with GANAB, -0.15 log2; in the test with HSP90AB1 it was -0.65 log2. Further, the other: log2 relative change with HSPA2 is 0.77 log2; with HSPA9, -0.07 log2; with PDIA4 it was -0.65 log2; with PSMB6 it was -0.85 log2; with PSMD2, -1.1 log2; with RPN2 it was -1.5 log2. The other: log2 relative change with SERPINH1 is -0.12 log2; with TCP1, 0.5 log2; with UBA1, 0.37 log2; with UCHL1 it was -0.77 log2.
